Data taken from PMC3410803.

System: anti-MPT64 antibody (purified rabbit antibody to recombinant M. tuberculosis H37Rv MPT64) (rabbit)
Assay: ELISA
Details: 20 mM Hepes pH 7.35, 120 mM KCl, 1 mM CaCl2, 1 mM MgCl2 ([…]

Question: How did the binding signal turn out when “GGGAGCTCAGAATAAACGCTCAAAAACGCTCAAGAGGCCCGGATCTTCGACATGAGGCCCGGATC [MPT64-A1]” was run?
Answer: The binding signal was 1.62 OD450.
